This is an account of results in patent publication US20210189432A1 (UNIVERSITY OF UTAH RESEARCH FOUNDATION, published 2021).

Series [1] concerns the molecule itself. The series is described as follows: formaldehyde crosslinking in situ in HEK293 cells, western blot. In general terms: In western blotting, separated proteins are transferred to a membrane and probed.
Description: Western blot samples were mixed with 4× Laemlli buffer (40% glycerol, 250 mM Tris, 4% SDS, 50 mM DTT, pH 6.8) and heated at 70° C. for 5 min. SDS-PAGE gel electrophoresis was used to separate protein samples. Separated samples were transferred to a nitrocellulose membrane (GE Healthcare). Following transfer, membranes were briefly stained with 0.1% Ponceau stain, then destained with 1% acetic acid to remove background, for imaging of total protein. […] Membranes were washed 3×10 min in 1×TBS, then incubated in an HRP-conjugated secondary antibody (Jackson ImmunoResearch) in block for 1 h at RT. After 3×10 min in 1×TBS, a chemiluminescent kit (Bio-Rad, Hercules, Calif.) was used to detect the protein bands, and the membranes were imaged on an Azure c300 gel dock (Azure Biosystems, Dublin, Calif.). Blots were analyzed and quantified using the Gel Analysis plugin in ImageJ.
Media was removed and pelleted cells were then crosslinked with 0.4% formaldehyde in PBS for 10 min with rocking at RT. Cell suspensions were immediately quenched with Tris to a final concentration of 50 mM and repelleted. […] Lysates were cleared by centrifugation at 21,000×g for 10 min at 4° C. and cleared supernatants were then run on a 4%-8% gradient gel and analyzed via western blot with antibodies for Arc (mouse monoclonal, Santa Cruz) and GFP (chicken polyclonal, Ayes).
Series [2] concerns the molecule itself. The series can be described thus: negative stain EM of purified protein (self-assembly).

B1: myc-Arc-WT (full-length rat WT Arc expressed in HEK293 cells) (other)
chain: MELDHMTTGGLHAYPAPRGGPAAKPNVILQIGKCRAEMLEHVRRTHRHLLTEVSKQVERELKGLHRSVGKLENNLDGYVPTGDSQRWKKSIKACLCRCQETIANLERWVKREMHVWREVFYRLERWADRLESMGGKYPVGSEPARHTVSVGVGGPEPYCQEADGYDYTVSPYAITPPPAAGELPEQESVGAQQYQSWVPGEDGQPSPGLDTQIFEDPREFLSHLEEYLRQVGGSEEYWLSQIQNHMNGPAKKWWEFKQGSVKNWVEFKKEFLQYSEGTLSREAIQRELDLPQKQGEPLDQFLWRKRDLYQTLYVDAEEEEIIQYVVGTLQPKFKRFLRHPLPKTLEQLIQRGMEVQDGLEQAAEPSVTPLPTEDETEALTPALTSESVASDRTQPE
notes: Crosslinked in situ inside transfected HEK293 cells with formaldehyde; also called WT myc-Arc; not shown: myc tag of pRK5-myc-Arc
On to B1, for which, in series [1], the binding result is reported as “binds”.

B2: Drosophila Arc homolog dArc1 (Drosophila Arc1, NP_610955.1) (other, UniProt Q7K1U0 1-254, looked up)
chain: MAQLTQMTNEQLRELIEAVRAAAVGAAGSAAAAGGADASRGKGNFSACTHSFGGTRDHDVVEEFIGNIETYKDVEGISDENALKGISLLFYGMASTWWQGVRKEATTWKEAIALIREHFSPTKPAYQIYMEFFQNKQDDHDPIDTFVIQKRALLAQLPSGRHDEETELDLLFGLLNIKYRKHISRHSVHTFKDLLEQGRIIEHNNQEDEEQLATAKNTRGSKRTTRCTYCSFRGHTFDNCRKRQKDRQEEQHEE
Regarding B2, the binding result in series [2] is “binds”.
